This note sets out measurements from article doi:10.1101/608273.

The Kd is the free concentration of one partner at which half of the binding sites on the other are occupied at equilibrium, for simple one-to-one binding.

For the test, the target named is dNxf2^UBA (recombinant) (Drosophila) (UniProt Q9VV73). As to the kind of experiment: ITC.
Chain of UniProt Q9VV73 (Q9VV73 whole entry): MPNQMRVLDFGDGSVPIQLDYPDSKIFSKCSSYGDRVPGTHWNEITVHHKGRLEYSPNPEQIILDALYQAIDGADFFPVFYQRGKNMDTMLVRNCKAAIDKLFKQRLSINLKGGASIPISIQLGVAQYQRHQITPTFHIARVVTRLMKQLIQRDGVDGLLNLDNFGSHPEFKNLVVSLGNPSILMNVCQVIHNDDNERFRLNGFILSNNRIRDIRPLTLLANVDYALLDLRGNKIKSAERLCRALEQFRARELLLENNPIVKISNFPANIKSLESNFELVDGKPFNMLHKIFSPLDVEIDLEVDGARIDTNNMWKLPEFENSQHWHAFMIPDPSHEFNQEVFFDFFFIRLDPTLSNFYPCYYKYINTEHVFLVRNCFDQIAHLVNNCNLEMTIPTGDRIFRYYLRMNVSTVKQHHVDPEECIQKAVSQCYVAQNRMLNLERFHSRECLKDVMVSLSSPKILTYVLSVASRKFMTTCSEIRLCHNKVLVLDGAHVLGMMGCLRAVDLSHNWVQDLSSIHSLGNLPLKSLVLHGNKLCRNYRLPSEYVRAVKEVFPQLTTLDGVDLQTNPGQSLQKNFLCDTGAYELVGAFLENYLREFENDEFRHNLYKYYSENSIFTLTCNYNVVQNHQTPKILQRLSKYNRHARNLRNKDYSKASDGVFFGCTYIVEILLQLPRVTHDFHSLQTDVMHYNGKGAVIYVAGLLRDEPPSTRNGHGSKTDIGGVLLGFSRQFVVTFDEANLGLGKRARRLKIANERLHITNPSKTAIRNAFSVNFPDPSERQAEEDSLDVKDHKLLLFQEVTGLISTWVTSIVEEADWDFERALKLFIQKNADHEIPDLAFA

Consider “Purified Panx^NIR (from UniProt Q9W2H9 315-343) (domain or fragment)”, for which the Kd turned out to be 3.2 µM.
